Data taken from the supplement of paper PMC12455559.
± gives the standard deviation of the averaged measurements.

Assays:
[1] = PET hydrolysis, aromatic products released after 48 h (umol product/mg enzyme); higher = more PET depolymerization activity
How it was run: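 The measure of PET hydrolysis activity is aromatic product released into the supernatant, given per mg enzyme. Nickel-purified, SUMO-cleaved enzyme without tag was added at 5 μg (50 μL) to 3.5 mg amorphous PET film or crystalline PET powder in 450 μL of citrate, phosphate or glycine buffer spanning pH 4.5 to 8.5. After 48 h at 40 or 60 °C in sealed plates without shaking, absorbance at 260 and 280 nm was taken against buffer blanks.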

[2] = melting temperature (DSF); higher = more thermostable
How it was run: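 On a Bio-Rad CFX96, fluorescence of 45 μL enzyme (0 to 0.3 mg/mL) mixed with 5 μL 5X Sypro Orange in sealed PCR plates was followed from 25 °C through 250 cycles of 0.3 °C, with a 0.3 °C/s ramp. The enzymes had been expressed in E. coli C41(DE3), taken up on nickel beads and released by SUMO protease. Melting temperature, measured by differential scanning fluorimetry, is the value given.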

[3] = purified protein yield per well (BCA); higher = higher soluble expression
How it was run: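 Candidate enzymes were produced in E. coli C41(DE3) grown in 2 mL autoinduction cultures containing 100 µg/mL kanamycin, first at 37 °C for 2 h and then at 18 °C for 40 h. After cell lysis, protein was captured on Ni-charged magnetic beads and freed by SUMO protease cleavage on an OT-2 robot. Purified protein yield per well was read with the Pierce Rapid Gold BCA kit. Values under 25 ug (0.1 mg/mL) fall below the detection threshold.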

[4] = substrate: aFilm, 40 °C, pH 4.5
[5] = substrate: aFilm, 40 °C, pH 5.5
[6] = substrate: aFilm, 40 °C, pH 6.5
[7] = substrate: aFilm, 40 °C, pH 7.5
[8] = substrate: aFilm, 60 °C, pH 4.5
[9] = substrate: aFilm, 60 °C, pH 5.5
[10] = substrate: aFilm, 60 °C, pH 6.5
[11] = substrate: aFilm, 60 °C, pH 7.5
[12] = substrate: cryPow, 40 °C, pH 4.5
[13] = substrate: cryPow, 40 °C, pH 5.5
[14] = substrate: cryPow, 40 °C, pH 6.5
[15] = substrate: cryPow, 40 °C, pH 7.5
[16] = substrate: cryPow, 60 °C, pH 4.5
[17] = substrate: cryPow, 60 °C, pH 5.5
[18] = substrate: cryPow, 60 °C, pH 6.5
[19] = substrate: cryPow, 60 °C, pH 7.5

Sequence	PET hydrolysis [1, 4]	PET hydrolysis [1, 5]	PET hydrolysis [1, 6]	PET hydrolysis [1, 7]	PET hydrolysis [1, 8]	PET hydrolysis [1, 9]	PET hydrolysis [1, 10]	PET hydrolysis [1, 11]	PET hydrolysis [1, 12]	PET hydrolysis [1, 13]	PET hydrolysis [1, 14]	PET hydrolysis [1, 15]	PET hydrolysis [1, 16]	PET hydrolysis [1, 17]	PET hydrolysis [1, 18]	PET hydrolysis [1, 19]	melting temperature [2] [C]	purified protein yield per well [3] [µg]
ADNPFQRGPNPTVASVAATRGTFATAQTSVPAGNGFGGGVVYYPTDTSQGTFGGVAIVPGYSALFADEEAWMGPWLASFGFVVIGIETNSRTDSADARGTELLAALDYLTQRSPVRDRVDPNRLSVVGHSAGGAGVLSALLRRPSLKAGVGLAPGSPVGNYDLYSDRVPTMFISGQRDTTVTQSYLNGLYSTLPATTPSAWVEITGVDHLFATRANTTEMRVLIPWLKIWVDNDTRYTQFLCPLADSTGISMYRDKCPYVPPGGSSPSPSASPSSTPSRSPSPSPSPSPSPSPSPSPSPSPSPSPSASPSLPPPGACVAEYRTMNSWPGGYQAMVTVTAGGTAVNGWTVRWTLGGGQTISQLWNGTLSTSGSAVTVKNASYNGSIPASGSATFGFLATGTPSTPSLTCTSP [ESM036]	< 3	< 3	< 3	< 3	< 3	< 3	< 3	< 3	< 3	< 3	< 3	< 3	< 3	< 3	< 3	< 3	49.6	376
VQIGPAPTKASLEASRGPFTVATTRLSANGHGGGTIYYPTNAGAKVGVIAIVPGYLSYQSSIEWWGPRLASHGFAVVTIDTLTIYDQPSSRSSQQLRALDQVVALGSKSTSPLYNKVDGSRTGVMGWSMGGGGSLISAQNRPSIKAAAPQAPWNTTSNFSSLTVPTLIFACQADVVAPILSHAVPFYNSMSRNPKQYLERTAGDHFCFNNANPTVGLKGVAWMKRFIDGDTRYTSFACSNPNALGFSSFRTERCS [ESM053]	–	–	–	–	–	–	–	–	< 3	6	10	32	< 3	< 3	6	10	62.8	103
ADNPYERGPNPTQASIAASRGTFATAEVSVGGGNGFAAAKIYYPTDTSQGTFGAIAIVPGYTATWAAEGAWMGPWLASFGFVVIGIDTLSRNDFDTARGTQLLAALDYLTQRSSVRSRVDASRLAVMGHSMGGGGAISAALRRPSLKAAVGLAPFSPSQGTSGMRVPSMLLAGQRDGTVTPSSVRNLYNAIPATTEKAYLELTGAGHGFPTSANSVMMRKVIPWLKIFVDQDTRYQQFLCPLVDWTGITSYQSSCPLIPGGSTGTTYNLVNSSGKCADVNAASQVNGAALLLWTCHTNPNQRWTETSAKELRVYDNPKCMDAGAAQQGTRVTINSCSGGGSQKWTVNANGTVTNDLSGRCLGAAGGATTDNTPLVVASCDGSPGQQWTKQS [TEP093]	–	–	–	–	–	–	–	–	4	12	31	28	< 3	4	7	7	69.7	166
ADNPYQRGPDPTRASVASENGPFANTSVAVPTGYGFNGGRIYYPTDTSQGTFGAIAISPGYTALFSVELAWMGPWLASHGFVVIGIETNSRNDFDTARGTQLLAALDYLTQQSPVRDRVDSSRLAVAGHSMGGGGALSAAMRRSSLKAAVGIAPYSPSSNLATDRVPTMVFSGQADTVVTPSYATGLYNSLPSTTESAYLEVAGADHGFMVGRSNPVLIRTMLPFLKIFIDNDARYSQFLCPLLDTSGVVTYRSTCPLLPTPPTSPTATPTTTPTGPSPTSPPGAASQLVGAQSGRCVDVPNASRANGTRVQLWDCNRQSNQSWTYTSTKQLRVYGDMCLDAAGTGNGAAVQIYGCHGQANQQWNVNSNGTVSNVQSGRCLDVWSTANGAQIQLYDCHGQTNQRFNLTPLA [TEP111]	< 3	< 3	< 3	< 3	< 3	< 3	< 3	< 3	13 ± 1.4	17	15.5 ± 9.2	8.5 ± 12	< 3	5	4.5 ± 0.71	< 3	63.1	245
ADNPYQRGPDPTLASVAASRGPFATTQATVPPGNGFNGGYVYYPTDTSLGTWGAVAIVPGYSALFANEEAWMGPWLASFGFVVLGIETNSRNDGADARATQLLAALDYLTQSSPVRNRVDPNRLSVMGHSAGGAGTLMAALRRPSLKTAVGLAPGAPGNSLNMSTTKVPTMLISGQNDGTVTPSYVQGIYNTLPASVEHAWAELAGNDHLSFTRPNPTEMRILIPWLKIFLDNDTRYTQFLCPLADSTGVSRYNSTCPLVPPGVPTSPPTTPPTSTPPPTGPPTSPPPPTTTPPPAGGACTATYRTVGSWSGGFQGEVTVTAGSAAINGWTVRLDLGGGQSISQVWNGTLSTSGSTATVRNVSYNGSLAAAGSTTFGFLGSGTPPAPTPTCTSP [ESM005]	–	–	–	–	–	–	–	–	< 3	< 3	< 3	< 3	< 3	< 3	< 3	< 3	67	88.4
GSLAHIVMVDAYKPTKGSGASQTNPYARGPNPTAASLEASAGPFTVRSFTVSRPSGYGAGTVYYPTNAGGTVGAIAIVPGYTARQSSIKWWGPRLASHGFVVITIDTNSTFDYPSSRSSQQMAALRQVASLNGDSSSPIYGKVDTARMGVMGHSMGGGASLRSAANNPSLKAAIPQAPWDSQTNFSSVTVPTLIFACENDSIAPVNSHALPIYDSMSRNAKQFLEINGGSHSCANSGNSNQALIGKKGVAWMKRFMDNDTRYSTFACENPNSTAVSDFRTANCSLEGSGGSGAHIVMVDAYKPTK [TEP004]	–	–	–	–	–	–	–	–	4	33	62	69	< 3	14	76	82	73.9	77.2
MAAANPYQRGPDPTLASVAATNGPFATAQMTVPPGNGFNGGYIYYPTDTSLGTWGAVAIVPGYTALFKNEEAWMGPRLASFGFVVIGIETNSRTDFDTARGTQLLAALDYLTQKSAVRNRVDPGRLGVIGHSMGGGGALVAATQRPSLKAAVGLAPFKPSGNLANDRVPTMFIAGNRDTVVTPSYLDGLYGSLPAATKKAYVQINGADHLFATKPNTVEMRTLIPWLKIFLDNDTRYSQFLCPTLLDKTGVSMYRGTCPLI [TEP109]	7 ± 1.4	12.5 ± 2.1	10.5 ± 2.1	< 3	< 3	2 ± 2.8	< 3	< 3	28.5 ± 0.71	43 ± 1.4	67 ± 7.1	65.5 ± 3.5	12.5 ± 2.1	47 ± 1.4	23 ± 4.2	5.5 ± 0.71	61.6	285
MIATIPDGSAAAAADDNPYQRGPDPTVASVAAQYGPFATAQITVPPGNGFNGGFIYYPTDTSHTYGAVAIVPGYTALFANEEAWMGPRLASFGFVVIGVETNSRNDYDTARGTQLLAALDYLTNSSAVRDRVDRNRLAVIGHSMGGGGSLYAATQRPSLKAAIGLAPFKPSGNLASDTVPTMIIGGINDTTVTPSYLDGLYPTLPAATPGAYLQLANADHLYFTRPNDIELRSQIEWLKIFVDNDARYTQFLCPSIKDTTGIARSNVKCSTIPSGGSTPPSSPPPVPSGPQRILAAQSGRCVDVPNATHNNGTRVQLYDCNGQANQQWTSTSSKQLTVYGNVCLDAAGSGNGAAVQIYSCNGQSNQQWNVNANGTITGVQSGRCLDVWGTGNGQQIQLWDCNGQANQRFSLS [TEP181]	< 3	< 3	< 3	< 3	< 3	< 3	< 3	< 3	4.5 ± 0.71	12.5 ± 0.71	11 ± 1.4	< 3	< 3	< 3	< 3	< 3	50.2	249
AGNPYQRGPDPTLASVAASRGTFATAQVSVPAGNGFNGGTIYYPTDSSQGTWGAVAIVPGYTALFANEEAWMGPWLASFGFVVIGIETNSRTDFDTARGTQLLAALDYLTQKSPVRDRVDSARLGVIGHSMGGGGVVYATEHRPSLKAAVALAPFSPSQDMSTDHVPTMVMGGQNDTVVTPSYLDGLYATMPASTQSDFVQLAGADHVAYTHPNTTEMRLLIPWLKIFLDDDTRYTQFLCPLMDSTGVSAYHSKCPYVPPGGSTSTPTPTPTITPTPPPSGACSATYRTVNSWSGGYQGEVTVTAGDAAINGWTVRWNLGGGQTVTQVWNGTLSTSGSTATVTNASYNGSLQASASTTFGFLANGTPSTPAITCTSP [TEP114]	< 3	< 3	< 3	< 3	< 3	< 3	< 3	< 3	7	12.5 ± 0.71	24.5 ± 3.5	< 3	6 ± 1.4	9 ± 1.4	1.5 ± 2.1	< 3	41.8	407
